Measurements as given in the nanobody polyreactivity screen of Harvey et al. (2022).

Test: yeast display, Sf9 membrane polyspecificity reagent, FACS + sequencing; frameworks hold sequencing errors
Summary of the method: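 After 36–48 hours of galactose induction, yeast (Saccharomyces cerevisiae BJ5465) displaying a synthetic nanobody library were stained at 4 °C for 1 hour with 10% biotinylated, detergent-solubilized Sf9 membrane reagent. Streptavidin microbeads enriched the stained cells before FACS sorting into low and high (top ~1%) gates on anti-HA and streptavidin fluorescence. Each clone's polyreactivity label reflects its gate of origin.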
For “QVQLVESRGGLVQAGGSLRLSCAASGRIFRYNAMGWYRQAPGKERELVAAITWSGVSTYYADSVKGRFTISRDNAKNTGYLQMNSLKPEHTAVYYCNARRWPAWSSDDYWGQGTQVTVSS”, the “polyreactivity (PSR sort gate)” value was “high polyreactivity”. In the case of “QVQLVESRGGLVQAGGSLRLSCAASGRIFRYYAMGWYRQAPGTEREMVAAIRYRGASTYYADSVKGRFTISRDNAKNTVYLQMNSLKPEDTAVYYCAAYDYHPYRIVGASRSDYWGQGTQVTVSS”, the “polyreactivity (PSR sort gate)” value is reported as “high polyreactivity”. With “QVQLVESRGGLVQAGGSLRLSCAASGRIFSIYAMGWYRQAPGKERELVAAITNGGGSTYYADSVKGRFTISRDNAKNTVYLPMISLKPEDTAVYYCAARSPGGKNTKYYWGQGTQVTVSS” the “polyreactivity (PSR sort gate)” value was “high polyreactivity”. In the case of “QVQLVESRGGLVQAGGSLRLSCAASGRIFSSYAMGWYRQAPGKERELVAAISSRGGSTYYADSVKGRFTISRDNAKNTVYLQMNSLKPDDTAVYYCARVKYSGVVYKYDYWGQGTQVTVSS”, the “polyreactivity (PSR sort gate)” value is reported as “high polyreactivity”. With “QVQLVESRGGLVQAGGSLRLSCAASGRILHFNAMGWYRQAPGKEREFVASISWSGGFTYYADSVKGRFTISRDNAKNTVYLQMNSLTPEDTAVYYCARGYGYGDHAMGYWGQGTQVTVSS” the “polyreactivity (PSR sort gate)” value was “high polyreactivity”. With “QVQLVESRGGLVQAGGSLRLSCAASGRTFDRNAMGWYRQAPGKERQFVAAITSRVGSTYYADSVKGLFTISRDTAKNTVYLQMNSQKPEDTAVYDCNKRYFGEQTWVGGDSWGQGTLVTVSS” the “polyreactivity (PSR sort gate)” value was “high polyreactivity”. With “QVQLVESRGGLVQAGGSLRLSCAASGRTFEYNAMGWYRQAPGKERELVATIRYSGTSTYADSVKGRFTISRDNAKNTVYLQMNSLKPEDTAVYYCAKQVRYYGYKYNYWGQGTQVTVSS” the “polyreactivity (PSR sort gate)” value was “high polyreactivity”. In the case of “QVQLVESRGGLVQAGGSLRLSCAASGSIFLSYAMGWYRQAPGKERELVADISRSGGSTYYADSVKGRFTISRDNAKNTVYLQMNSLKPEDTAVYYCAVYIAVYEGDYWGQGSQVTVSS”, the “polyreactivity (PSR sort gate)” value is reported as “low polyreactivity”. For “QVQLVESRGGLVQAGGSLRLSCAASGSIFRPYAMGWYRQAPGKERELVAAISSSGGSTYYADSVKGRFTISRDNAKNTVYLQMNSLKPEDTAVYYCAAESRSTWIHSRDYWGQGTQVTVSS”, the “polyreactivity (PSR sort gate)” value was “low polyreactivity”. For “QVQLVESRGGLVQAGGSLRLSCAASGSIFYVYAMGWYRQAPAKERELVAAITSSGTTNYADSVKGRFTIPRDNAKNTVYLQMNSLKPEDTAVYYCAADPDSGQVPFDYWGQGTQVTVSS”, the “polyreactivity (PSR sort gate)” value was “low polyreactivity”. For “QVQLVESRGGLVQAGGSLRLSCAASGSTFDGNAMGWYRQAPGKERELVAAISIGGSTSYADSVKGRFTISRDNAKNTVYLQMNSLNPEDTAVYYCAADRYRTFYQWKRYRYDYWGQGTQVTVSS”, the “polyreactivity (PSR sort gate)” value was “high polyreactivity”. For “QVQLVESRGGLVQAGGSLRLSCAASGSTFTHYAMGRYRHAPGKERELVAAISWGGGTTRYADSVKGRFTISRDNAKNSVYLQMNSLKPVDTAVYYCAKRVRTGSVGNFNYWGQGTQVSVSS”, the “polyreactivity (PSR sort gate)” value was “high polyreactivity”. In the case of “QVQLVESRGGLVQAGGSLRLSCAASGSTSYIYVMGWYRQAPGKERELVATISKNGGDTYADSVKGRFTISRDNAKNTVYLQMNSLKPEDTAVYYCYARAYLYNRRISSRYNYWGQGTQVTVSS”, the “polyreactivity (PSR sort gate)” value is reported as “high polyreactivity”. For “QVQLVESRGGLVQAGGSLRLSCAASRSTFGVNAMGWYRQAPGKERELVARISSGVRTYYADSVKGRFTISRDNAKNTVYLQMNSMIPEDTAVYYCAAVYFRGVDRAFLSYSYYYWGQGTQVTVSS”, the “polyreactivity (PSR sort gate)” value was “high polyreactivity”. In the case of “QVQLVESRGGLVQAGGSLRLSCAPSGLIFWAYARGWYRQAPGNERELVAAINWRGGSTYYADSVKGRFTISRDNAKNTVYLQMNSLKPEDTAVYYCAADSYYDEYDYWGQGTQVTVSS”, the “polyreactivity (PSR sort gate)” value is reported as “low polyreactivity”. With “QVQLVESRGGLVQAGGSLRLSCDASGFIFTLYAMGWYRQAPGKERELVASIRGSGGNTYYADSVKGRFTISRDNAKNTVYLQMNSLKPEDTAVYYCAARTYRRPYSSWGQGTQVTVSS” the “polyreactivity (PSR sort gate)” value was “high polyreactivity”. For “QVQLVESRGGLVQAGGSLRLSCGASGFIFKPYAMGWYRQAPGKERELVASISTGARTYYADSVKGRFTISRDNAKNTVYLQMNSLKPEDTGVYYCAAAYSRWITRYDYWGQGTQVTVSS”, the “polyreactivity (PSR sort gate)” value was “high polyreactivity”. In the case of “QVQLVESRGGLVQAGGSLRLSCPASGFTNWRNDMGWYRQAPGKERELVADISTAGRTYYADSVKGRFTISRDNAKNTVYLQMNSLNPEDTAVYYCAKRSYYKDQPRYGYWGQGTQVTVSS”, the “polyreactivity (PSR sort gate)” value is reported as “low polyreactivity”. With “QVQLVESRGGLVQAGGSLRLSCPDSGITLSEYAMGWYRQAPGKERELVATISWRGGTTYYADSVKGLFTISRDNAKNTVSLQMIILNPEDTAVYYCAASWWSFGCYTWKAYDYWGQGTQVTVSS” the “polyreactivity (PSR sort gate)” value was “high polyreactivity”. For “QVQLVESRGGLVQAGGSLRLSSAASAFIFGSNAMGWYRQAPGKERELVAAISRSGGSTYYADSVKGRFTISRDNAKKTVYLQMNSLKPEDTAVYYCNVDLWPFVYSWWSYDYWGPGTQVTVSS”, the “polyreactivity (PSR sort gate)” value was “high polyreactivity”. For “QVQLVESRGGLVQAGGSLRLSSAASGSIIWYYAMGWYRQAPGKERELVAAITVSGGSTYYADSVKGRFTISRDNAKNTVYLQMNSLKPEDSAVYYCAARYISLSGDEYDYWGQGTQVTVSA”, the “polyreactivity (PSR sort gate)” value was “low polyreactivity”. For “QVQLVESRGGLVQAGRSLRLSCAASGSTFVQYVMGWYRQAPGKERELVAAITRSGGSTYYADSVKGRFTISRDNAKNTVYLHMNSLKPEDTAVYYCAAVPWRRSTRYDYWGQGTQVTVSS”, the “polyreactivity (PSR sort gate)” value was “high polyreactivity”. With “QVQLVESRGGLVQAGVSLRLSCASSGRIVGWYAMGWYIQAPGKERELVAVITWSDGRTYYADSVKGRFTISRDNAKNTVYLQMNSLKPEDTAVFYCAAADWITEYDYWGQGTQVTVSS” the “polyreactivity (PSR sort gate)” value was “low polyreactivity”. With “QVQLVESRGGLVQAGVSLRLSCSASGSIFPYYAMGWYRQAPGKEREFVASISSVTSTYADSVKGRFTISRDNAKNTVYFQMYILIPEDTAVYYFAADRAYSWYSVSRNNYWGPGTQVTVSS” the “polyreactivity (PSR sort gate)” value was “low polyreactivity”. For “QVQLVESRGRLVQAGGSLRLSCAASGFSFVINDMGRYRQAPGKERELVADITSGGDTYYADSVKGRFTISRDNAKNTVYLQKNSLKPEDTAVYYCAADIYRDLIYLLYGYWGQGTQVTVSS”, the “polyreactivity (PSR sort gate)” value was “low polyreactivity”. In the case of “QVQLVESRGVLVQAGGSLRLSCAASGRTFYFYVKGWYIQEPGKERELVARISYSDGSTYYADSVKGRFTISRDNAKNTVYLQMNSLKPEDTAVYYCNAYDPYFGRRYDYWGQGTQVTVSS”, the “polyreactivity (PSR sort gate)” value is reported as “low polyreactivity”. For “QVQLVESRGVLVQAGGSLRLSCAASGSNFYVYAMGWYRPAPGKERELVAGISWSADSTYYADSVKGRFTISRDNAKYTVYLQMNSLKPEDSAVYYCATDRYPTRRYDYWGQGTQVTVSS”, the “polyreactivity (PSR sort gate)” value was “low polyreactivity”. For “QVQLVESRVGLVQAGGSLRLSCAASGITLYYYALGWYRHAPGKEREFVAAITWRGTTTYYADSVKGPFTISRDNAKNTVYLQMNSLKPEDTALYYCAAEHEQRVADYYYWGQGTQVTVSS”, the “polyreactivity (PSR sort gate)” value was “low polyreactivity”. In the case of “QVQLVESSGGLVQAGGSLRLRCAASGMISEYNAMGWSRQAPGKERELVAAITWNGGSTFYADSVKGRFTISRDNAKNTVYLQMNSLKPEDTAVYYCNKTRLEPEYGYWGQGTQVTVSS”, the “polyreactivity (PSR sort gate)” value is reported as “low polyreactivity”. With “QVQLVESVGALVQAGGSLRLSCAASGSTFRRNAMGWYRQAPGKERELVATITTRGGSTYYADSVKGRFTLSRDNAKNTVNLQMNSLKPEDTAVYYCAADRRSGYSRSKYGRGDYWGQGTQVTVSS” the “polyreactivity (PSR sort gate)” value was “high polyreactivity”.
